Tested on: MS2 coat protein
Experiment: apparent KD of MS2 coat protein; designed switch direction (-1 OFF switch, 1 ON switch): -1; higher = weaker reporter binding
In short: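 Designed RNA switches with common flanks were transcribed on Illumina chips by stalled E. coli RNA polymerase and titrated with SNAP-549-labelled MS2 coat protein, from 0.7 or 1.5 nM doubling to 3 µM, in Tris-HCl pH 7.5 buffer with KCl, MgCl2, BSA, DTT, tRNA and Tween-20. Steps lasted 0.8–1.5 h (lowest) to 10–20 min (highest). Titrations ran without input, with 200 uM small-molecule ligand, or with an oligonucleotide input. Normalised cluster fluorescence was curve-fitted, and apparent KD is the per-design median over clusters.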

[1] = input ligand: microRNA oligo, concentration not stated
[2] = Eterna round: R95, input ligand: FMN 200 uM
[3] = Eterna round: R95, input ligand: microRNA oligo, concentration not stated
[4] = Eterna round: R95, input ligand: none

Sequence | apparent KD of MS2 coat protein (input ligand: FMN 200 uM) [nM] | apparent KD of MS2 coat protein (input ligand: none) [nM] | apparent KD of MS2 coat protein [1] [nM] | apparent KD of MS2 coat protein [2] [nM] | apparent KD of MS2 coat protein [3] [nM] | apparent KD of MS2 coat protein [4] [nM]
AUGAGUUGAGGAUAUACGUGAGGCGUUAACGCCGCCAGUCAACAUGAGGAUCACCCAUGUAGAAGGCAACCGUC [Eternabot (L1) Solution 6] (Eterna round: R97, puzzle: Exclusion 2) | 22.1 | 19.7 |  |  |  | 
AAUGGGCAAGCAUGAUCCCACAUGAGGAUCACCCAUGUGUUCGUCUUAUAGGCUGCUGAGGCUUUUGCCUCGGUGGC [LRO Sensor-off var1-03 loose mod of D91 from Mat747] (Eterna round: R97, puzzle: Sensor, turn-off variant 1) | 850 | 1370 |  |  |  | 
AGAUAUUCGGUAGGAUAUCAGAAAGGAAGUGUAUGAGAAGGACCGAGCCGGAAACCGGUACAUGAGGAUCACCCAUGUGGUCCA [PowerStrip EXNG 1.23] (Eterna round: R96, puzzle: Exclusion NG 1) | 20.4 | 16.4 | 14 |  |  | 
CCCAUGUCAGGAUAUUAAUUGGGCGGGAAAUCCCACCCACUUGAGAAGGGACAUGAGGAUCACCCAUGUAAAAC [Indila] (Eterna round: R97, puzzle: Exclusion 4) | 66.6 | 629 |  |  |  | 
AGAGAACAUGAGGAUCACCCAUGUAAGGAUAUGCGAAGAGUUCGGAGAGGUUGAGGAGGCAGAAGGUACAGGAG [JR_Exclu1_Sub042] (puzzle: Exclusion 1) |  |  |  | 30.5 | 31.4 | 33.1
AAAAGCUUUUUAAAAAAAAACAUGAGGAUCACCCAUGUUAAAAAAUAUAAGGUGAUAAAAAAUUGUCAAAAAAAAAA [Jieuxbot 008 - Jieux - Sensor v2, turn-off variant] (Eterna round: R96, puzzle: Sensor v2, turn-off variant) | 129 | 108 | 148 |  |  | 
UGGGUACUCCAUAGAAGAGACAUGAGGAUCACCCAUGUAGGACAAGCUUUUUGCUCGUCUUAAGAUGAGAGAUAGGA [JR_SV3TOV1_Sub013] (puzzle: Sensor v3, turn-off variant 1) |  |  |  | 143 | 114 | 126
UAUAUGUUAGGAUAUCUCGUCAUGGAGGAAACUCCAUGACGAGAGAAGGAACAUGAGGAUCACCCAUGUUUAUU [Mod of Fisker 25 - Jieux - Exclusion 4] (Eterna round: R97, puzzle: Exclusion 4) | 27.4 | 19 |  |  |  | 
GCAGCAACUCUAACUAACUAAACAUGAGGAUCACCCAUGUCUCAGGAUAUGGUCUGGAUUACAGGCCAGAAGGGAGAAAGCUGC [Eli exng3 - 039] (Eterna round: R96, puzzle: Exclusion NG 3) | 12.6 | 14.5 | 10.9 |  |  | 
UGUGUGUGAGGAUAUACAAUGGGCCCGGGAAACCGGGCCCUACAUGAGGAUCACCCAUGUAGAAGGCGCGCGCG [-39.6, -37.5 kcal A 24%, 0,6bis] (Eterna round: R97, puzzle: Exclusion 2) | 47.2 | 73.6 |  |  |  | 
CAGUACUGAGGAUAUACAUGAGGAUCACCCAUGUGUUGCAGCUAGGAAACUAGCAAAAGUAGAAGGCAGUACUG [salish99_ex3_r3_081] (puzzle: Exclusion 3) |  |  |  |  | 12 | 
AGCUGUGGCCGAGGAUAUCUGUUCCAUAUAACCGACGUAUAGUCGGACAUGAGGAUCACCCAUGUAGAGAAGGCGGUCUCAGCA [Eli eng2 - 000] (Eterna round: R96, puzzle: Exclusion NG 2) | 39.2 | 25.4 | 23.3 |  |  | 
GAAUAGGCAGGAUAUACAUGAGGAUCACCCAUGUGCCGGCGAUAGGUACGAUCGAAAGGUAGAAGGGCCUAAAC [ChP 13.04.2015 #8] (puzzle: Exclusion 3) |  |  |  | 30.7 | 140 | 127
UUUUUACAUGAGGAUCACCCAUGUCAGGAUAUCGUUAUAUUUUAUUAUUUUAUUUUUUCGAGAAGGGACUAUUA [My solution] (puzzle: Exclusion 1) |  |  |  |  | 74.6 | 
CUGAGCAGACGGAGAUCCAACAUGAGGAUCACCCAUGUCUCACAAGCUUUUUGCUUGUCUUAUUCUCCUCUGUUCUC [Leveasodi] (puzzle: Sensor v3, turn-off variant 1) |  |  |  | 12.8 | 16.6 | 12.1
CCUCCACAUGAGGAUCACCCAUGUCAGGAUAUAGGAUUGCUAUCAUGAGAGGAUGGCGUUAGAAGGGACAUCAC [Eternabot (L1) Solution 69] (Eterna round: R97, puzzle: Exclusion 1) | 44.5 | 40 |  |  |  | 
AUUCAUGCAGGAUAUACAUGAGGAUCACCCAUGUUAAUUUCUACAAGGCGGCAUCUAUGUAGAAGGGUAUGAAG [Eternabot (L2) Solution 33] (Eterna round: R97, puzzle: Exclusion 3) | 35.5 | 24.6 |  |  |  | 
AAUUAGCAAGCGAGAUCCCACAUGAGGAUCACCCAUGUGCUCGUCUUAUAAAAGACUGUGACGAAAGUCACGGUCAC [Mat - Sensor, turn-off var - Eli Mod - D26] (Eterna round: R97, puzzle: Sensor, turn-off variant 1) | 14 | 15.9 |  |  |  | 
GAGAAACAUGAGGAUCACCCAUGUAAGGAUAUGCUGAAAACAACGGAUAAAACGUGCAGCAGAAGGUACAAAGG [Mat - Mod of my Eli Mod D41] (puzzle: Exclusion 1) |  |  |  | 76.5 | 72.1 | 72.4
CUAAAAGUCGAGGAUAUGCACCGUUUCGCUGACGCAGAAGGCGACACAUGAGGAUCACCCAUGUCGGUACGCGA [salish99_ex6_r004_456] (Eterna round: R97, puzzle: Exclusion 6) | 27.7 | 23.5 |  |  |  | 
UUUCCCUGUGUGAGGAUAUACUUGUUUGGGUUUUUGUAGAAGGCACAUGAGGAUCACCCAUGUACUCUGUCGUG [JR_BME4_Sub021] (puzzle: Brourd's mod of Exclusion 4) |  |  |  |  | 21.1 | 
UAAUAGUCAGGAUAUACAUGAGGAUCACCCAUGUAGAAAUGAACCUGGGUUCUCCUAGGUAGAAGGGACAAAAG [Geerqu] (puzzle: Exclusion 3) |  |  |  | 28.7 | 22.7 | 24.1
AACCAGCGAGGAUAUGCUUGCGCGUGUUCUAGUUGAAAUCGACUUGAGGAUCACCCAAGUAGAAGGCGCAGCCG [EX2 #48] (Eterna round: R97, puzzle: Exclusion 2) | 83.9 | 43.9 |  |  |  | 
ACUGGGAGAGGAUAUACAUGAGGAUCACCCAUGUGAAAUUAUAGUGAGGAAAUGAAAAGUAGAAGGCUCUUAGA [Mod of Mat 14 - Jieux - Exclusion 3] (Eterna round: R97, puzzle: Exclusion 3) | 151 | 68.4 |  |  |  | 
GGCCCUAGGGUCAGACGCACAAGCUUUUUGCUCGUUUUAACAUGAGGAUCACCCAUGUCUAGUGGAUCUGAUCGGGU [Mausinonra] (puzzle: Sensor v3, turn-off variant 2) |  |  |  | 20.6 | 111 | 18.5
ACCUAAAAGCUAGGAUAUACAUGAGGAUCACCCAUGUACACAGGUAGACUAACCUGUGGACUCAUGUAGAAGGAGCAUGACAAA [Erongebe] (Eterna round: R96, puzzle: Exclusion NG 2) | 111 | 363 | 240 |  |  | 
AACACUGCAGGAUAUACAUGAGGAUCACCCAUGUGAUCCGAUAACUCCCACGGGAGGAGUAGAAGGGUAAAAGG [Eternabot (Original) Solution 6] (Eterna round: R97, puzzle: Exclusion 3) | 170 | 264 |  |  |  | 
AGCUAGAUAGGAUAUGCCCGAGAUAACAUGAGGAUCACCCAUGUGACCGAAUCUAUUCUAGCAGAAGGGUUUAGGA [Mod of ViennaUCT 17 - Jieux - Exclusion 5] (Eterna round: R97, puzzle: Exclusion 5) | 16.5 | 14 |  |  |  | 
AAAUAACAAGCAAAAAACCACAUGAGGAUCACCCAUGUAAAGGGUGAAGUUCGCACCCAAAAAUAAAAUAAAAAAUA [Mat - Sensor v2 - Eli mod - 173] (Eterna round: R96, puzzle: Sensor v2, turn-off variant) | 29.1 | 28.3 | 75 |  |  | 
UUUUAACAUGAGGAUCACCCAUGUGAGGAUAUCGAAAUUUAUAUUUAUAUUUAUUAAUCGAGAAGGCACAUUUU [JMF 100] (puzzle: Exclusion 1) |  |  |  |  | 121 | 

From the supplement of paper PMC9170038
